Source: the Human Domainome abundance scans (Beltran et al. 2025)
± gives the uncertainty stated by the source.

B1: Histone-lysine N-methyltransferase SETD2, residues 2382 to 2430; numbered along this chain, Q9BYW2 (parent)
chain: SPPKPKTIVLPPNWKTARDPEGKIYYYHVITRQTQWDPPTWESPGDDAS

Variants of: B1
Assay: abundance fitness (aPCA) (normalised: wild type 0, dead -1); higher = more abundant; growth selection in yeast, the domain comes from the species named
Conditions: Homo sapiens

Abundance fitness, by site and new letter:
Q35: C -0.337 ± 0.085, V -0.212 ± 0.036, Y -0.489 ± 0.038, I -0.505 ± 0.14, E -0.547 ± 0.09, T -0.052 ± 0.046, D -0.869 ± 0.24
I30: C -0.498 ± 0.04, N -0.046 ± 0.12, T -0.013 ± 0.07, F -0.361 ± 0.2, P -0.08 ± 0.042, W -0.447 ± 0.09, S -0.344 ± 0.06, R -0.018 ± 0.046, L -0.087 ± 0.046, Q -0.268 ± 0.11, Y -0.244 ± 0.12, M -0.19 ± 0.034, H -0.068 ± 0.088, D -0.21 ± 0.08, E -0.307 ± 0.044, G -0.313 ± 0.041, K -0.144 ± 0.052, A -0.314 ± 0.057
I24: G -0.578 ± 0.22, T -0.228 ± 0.41, Y -0.336 ± 0.33, A -0.253 ± 0.23, H -0.549 ± 0.48, W -0.123 ± 0.27, V -0.406 ± 0.27
P38: I -0.111 ± 0.04, N -0.651 ± 0.33, Y -0.228 ± 0.11, G -0.693 ± 0.051, K -0.121 ± 0.044, M -0.043 ± 0.077, H -0.039 ± 0.14, T -0.398 ± 0.15, C -0.221 ± 0.11, W -0.184 ± 0.059, R -0.251 ± 0.034, Q -0.255 ± 0.069, D -0.836 ± 0.15, L -0.396 ± 0.052, V -0.108 ± 0.034, E -0.493 ± 0.12, F -0.143 ± 0.094, A -0.126 ± 0.036
W36: F 0.321 ± 0.062, S 0.171 ± 0.033, C -0.08 ± 0.045, T -0.05 ± 0.046, K -0.006 ± 0.056, M -0.382 ± 0.11, Q -0.139 ± 0.048, E -0.027 ± 0.037, Y 0.203 ± 0.042, V 0.083 ± 0.042, G -0.152 ± 0.039, R 0.139 ± 0.045, A -0.239 ± 0.07, I 0.139 ± 0.064, H 0.33 ± 0.079, D -0.015 ± 0.032, L -0.082 ± 0.032
H28: E -0.689 ± 0.17, N 0.023 ± 0.19, D -0.213 ± 0.059, R -1.03 ± 0.12, L -1.09 ± 0.17, C -0.792 ± 0.21, K -0.971 ± 0.12, S -0.767 ± 0.065, V -0.991 ± 0.16, A -1.06 ± 0.072, Q -0.64 ± 0.18, F -0.94 ± 0.37, G -1.01 ± 0.12, M -1.01 ± 0.29, W -1.05 ± 0.12, Y -0.6 ± 0.33
K23: D -0.493 ± 0.047, W -0.789 ± 0.047, C -0.402 ± 0.094, E -0.433 ± 0.12, V -0.303 ± 0.054, F -0.619 ± 0.15, A -0.288 ± 0.076, L -0.457 ± 0.035, S -0.279 ± 0.073, Y -0.316 ± 0.11, N -0.563 ± 0.14, I -0.447 ± 0.14, G -0.243 ± 0.035, M -0.514 ± 0.08, H -0.686 ± 0.28, R 0.029 ± 0.034, Q -0.28 ± 0.09, T -0.147 ± 0.044
V29: G -0.309 ± 0.039, A 0.011 ± 0.055, T 0.145 ± 0.077, H -0.208 ± 0.12, Q -0.018 ± 0.078, M 0.079 ± 0.087, C -0.074 ± 0.064, N -0.644 ± 0.26, L -0.287 ± 0.053, W -0.564 ± 0.068, Y -0.258 ± 0.12, K -0.255 ± 0.034, E 0.139 ± 0.057, R -0.428 ± 0.05, S -0.002 ± 0.035
G22: W -0.224 ± 0.093, C -0.882 ± 0.17, D -0.128 ± 0.079, H -0.484 ± 0.16, M -0.636 ± 0.14, F -0.733 ± 0.36, K -0.482 ± 0.076, I -0.753 ± 0.29, V -0.782 ± 0.088, A -0.844 ± 0.12, L -0.593 ± 0.11, N -0.555 ± 0.32, R -0.607 ± 0.059, Q -0.841 ± 0.18, S -0.297 ± 0.07, T -1.02 ± 0.078, E -1.1 ± 0.19
E21: K 0.134 ± 0.068, S 0.098 ± 0.039, L -0.487 ± 0.035, T -0.229 ± 0.095, D -0.136 ± 0.12, P -0.989 ± 0.14, C -0.134 ± 0.11, M -0.059 ± 0.06, G -0.003 ± 0.035, A -0.126 ± 0.065, V -0.275 ± 0.093, R -0.043 ± 0.053, Y -0.552 ± 0.18, W -0.345 ± 0.048, H -0.737 ± 0.28, I -0.316 ± 0.21, F -0.115 ± 0.17, Q -0.217 ± 0.063
Y27: G -0.747 ± 0.067, T -0.185 ± 0.075, P -0.898 ± 0.089, D -0.446 ± 0.11, C -0.543 ± 0.093, R -0.265 ± 0.052, L -0.534 ± 0.054, K -0.261 ± 0.082, H -0.293 ± 0.041, S -0.433 ± 0.052, E -0.3 ± 0.038, W -0.163 ± 0.062, V -0.173 ± 0.049, M -0.339 ± 0.046, F -0.487 ± 0.15, Q -0.136 ± 0.081
